The target in test [1] is T1, recombinant human CD64 expressed on the surface of CHO cells (human, UniProt P12314 16-374).
T1 construct: whole, on cells; also called huCD64
Briefly: flow cytometry, receptor-expressing CHO cells. As to the method: (§1) The CHO cells were incubated with serial dilutions of the indicated trispecific constructs and control constructs at 37° C., and cell surface bound antibodies were detected by FITC-conjugated goat anti-human IgG Fc and flow cytometric analysis. Measured median fluorescence intensity values were used to calculate apparent affinities (KD) by non-linear regression.
(In flow cytometry, cells or beads pass a laser one at a time.)

The target in test [2] is T1, recombinant human CD64 expressed on the …. Briefly: flow cytometry, CHO-huCD64 cells, apparent KD; SD 13.7. As to the method:
as §1

The target in test [3] is T2, recombinant human CD32A expressed on the surface of CHO cells (human, UniProt P12318 34-317).
T2 construct: whole, on cells; also called huCD32A
T2 sequence (looked up): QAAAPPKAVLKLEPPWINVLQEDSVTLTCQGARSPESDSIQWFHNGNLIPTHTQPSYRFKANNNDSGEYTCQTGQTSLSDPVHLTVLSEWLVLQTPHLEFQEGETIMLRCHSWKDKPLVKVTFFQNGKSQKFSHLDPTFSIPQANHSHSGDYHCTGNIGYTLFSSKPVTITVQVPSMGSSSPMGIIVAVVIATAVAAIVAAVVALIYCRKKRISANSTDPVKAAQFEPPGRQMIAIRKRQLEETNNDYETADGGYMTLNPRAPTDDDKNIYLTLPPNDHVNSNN
Briefly: flow cytometry, CHO-huCD32A cells, apparent KD; SD 719.6. As to the method:
as §1

Test [4] has as its target T2, recombinant human CD32A expressed on …. Briefly: flow cytometry, CHO-huCD32A cells, apparent KD; SD n.a. The method, then: as §1
In test [5] the target is T1, recombinant human CD64 expressed on the …. Briefly: flow cytometry, CHO-huCD64 cells, apparent KD; SD 7.0. As to the method: as §1
Test [6] deals with T3, recombinant human NKp46 expressed on the surface of CHO cells (human, UniProt O76036 22-304).
T3 construct: whole, on cells; also called huNKp46; CD355
T3 sequence (O76036 22-304): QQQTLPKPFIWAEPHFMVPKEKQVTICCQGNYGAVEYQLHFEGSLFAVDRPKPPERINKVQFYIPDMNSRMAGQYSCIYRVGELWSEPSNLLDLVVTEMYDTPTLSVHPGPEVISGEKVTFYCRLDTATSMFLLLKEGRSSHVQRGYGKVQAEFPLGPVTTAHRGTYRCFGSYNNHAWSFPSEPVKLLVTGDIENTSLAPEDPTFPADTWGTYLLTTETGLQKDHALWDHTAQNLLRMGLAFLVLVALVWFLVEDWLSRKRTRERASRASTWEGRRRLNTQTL
The test can be described thus: flow cytometry, CHO-huNKp46 cells, apparent KD; SD 6.2. As to the method: as §1

Test [7] deals with T1, recombinant human CD64 expressed on the …. The test can be described thus: flow cytometry, CHO-huCD64 cells, apparent KD; SD 8.7. The method, then: as §1
Test [8] addresses T2, recombinant human CD32A expressed on …. The test can be described thus: flow cytometry, CHO-huCD32A cells, apparent KD; SD 118.9. As to the method:
as §1

T1 sequence (P12314 16-374): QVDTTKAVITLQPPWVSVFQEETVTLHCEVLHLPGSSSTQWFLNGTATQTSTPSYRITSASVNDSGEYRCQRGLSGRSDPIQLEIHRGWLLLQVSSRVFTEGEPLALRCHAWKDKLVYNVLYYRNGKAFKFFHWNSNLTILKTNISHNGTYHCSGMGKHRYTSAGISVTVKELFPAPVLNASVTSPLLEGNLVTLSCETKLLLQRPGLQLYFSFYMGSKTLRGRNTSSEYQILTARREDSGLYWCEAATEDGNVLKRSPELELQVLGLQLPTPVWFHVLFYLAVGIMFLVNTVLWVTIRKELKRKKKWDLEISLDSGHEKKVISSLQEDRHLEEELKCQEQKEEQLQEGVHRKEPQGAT

B1: 2Fab-1scFv-AFc-1 (bispecific antibody, human IgG1, kappa)
heavy: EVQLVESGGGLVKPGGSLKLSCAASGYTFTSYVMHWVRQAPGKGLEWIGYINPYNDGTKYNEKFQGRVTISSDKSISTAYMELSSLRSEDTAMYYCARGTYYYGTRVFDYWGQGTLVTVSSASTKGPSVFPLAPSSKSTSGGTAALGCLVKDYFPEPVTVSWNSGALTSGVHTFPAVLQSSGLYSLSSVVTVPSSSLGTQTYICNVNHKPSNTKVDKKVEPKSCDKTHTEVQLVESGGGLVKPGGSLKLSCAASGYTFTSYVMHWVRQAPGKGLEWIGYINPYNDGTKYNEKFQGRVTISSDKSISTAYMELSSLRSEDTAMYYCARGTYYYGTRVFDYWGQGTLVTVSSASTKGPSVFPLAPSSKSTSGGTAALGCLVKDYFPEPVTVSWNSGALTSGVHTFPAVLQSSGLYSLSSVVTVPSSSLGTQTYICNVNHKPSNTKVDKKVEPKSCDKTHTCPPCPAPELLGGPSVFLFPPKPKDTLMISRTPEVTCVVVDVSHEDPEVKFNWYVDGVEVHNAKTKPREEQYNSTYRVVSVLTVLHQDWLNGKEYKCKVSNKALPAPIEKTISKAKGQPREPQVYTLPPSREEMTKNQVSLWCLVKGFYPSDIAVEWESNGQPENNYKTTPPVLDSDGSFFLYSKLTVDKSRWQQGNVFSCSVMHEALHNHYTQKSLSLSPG
light: DIVMTQSPATLSLSPGERATLSCRSSKSLQNVNGNTYLYWFQQKPGQSPQLLIYRMSNLNSGVPDRFSGSGSGTEFTLTISSLEPEDFAVYYCMQHLEYPITFGAGTKLEIKRTVAAPSVFIFPPSDEQLKSGTASVVCLLNNFYPREAKVQWKVDNALQSGNSQESVTEQDSKDSTYSLSSTLTLSKADYEKHKVYACEVTHQGLSSPVTKSFNRGEC
chain: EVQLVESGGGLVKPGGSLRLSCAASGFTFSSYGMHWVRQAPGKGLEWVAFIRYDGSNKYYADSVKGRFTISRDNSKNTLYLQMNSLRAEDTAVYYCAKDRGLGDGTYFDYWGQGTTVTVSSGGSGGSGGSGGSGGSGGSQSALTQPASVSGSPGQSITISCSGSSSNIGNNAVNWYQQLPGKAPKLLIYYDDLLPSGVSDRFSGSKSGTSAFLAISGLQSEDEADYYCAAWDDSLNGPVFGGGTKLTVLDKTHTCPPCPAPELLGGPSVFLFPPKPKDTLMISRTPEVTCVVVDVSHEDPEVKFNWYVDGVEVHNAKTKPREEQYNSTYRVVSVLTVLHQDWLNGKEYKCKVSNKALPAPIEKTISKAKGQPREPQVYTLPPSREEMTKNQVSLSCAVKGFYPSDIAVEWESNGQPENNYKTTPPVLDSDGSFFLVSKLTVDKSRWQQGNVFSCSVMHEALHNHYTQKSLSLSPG
notes: CD19, wt Fc, NKG2D(KYK-2.0)
Consider B1, for which, in test [1], the binding result is given as “binds”.

B2: 2Fab-1scFv-AFc-4 (bispecific antibody, human IgG1, kappa)
heavy: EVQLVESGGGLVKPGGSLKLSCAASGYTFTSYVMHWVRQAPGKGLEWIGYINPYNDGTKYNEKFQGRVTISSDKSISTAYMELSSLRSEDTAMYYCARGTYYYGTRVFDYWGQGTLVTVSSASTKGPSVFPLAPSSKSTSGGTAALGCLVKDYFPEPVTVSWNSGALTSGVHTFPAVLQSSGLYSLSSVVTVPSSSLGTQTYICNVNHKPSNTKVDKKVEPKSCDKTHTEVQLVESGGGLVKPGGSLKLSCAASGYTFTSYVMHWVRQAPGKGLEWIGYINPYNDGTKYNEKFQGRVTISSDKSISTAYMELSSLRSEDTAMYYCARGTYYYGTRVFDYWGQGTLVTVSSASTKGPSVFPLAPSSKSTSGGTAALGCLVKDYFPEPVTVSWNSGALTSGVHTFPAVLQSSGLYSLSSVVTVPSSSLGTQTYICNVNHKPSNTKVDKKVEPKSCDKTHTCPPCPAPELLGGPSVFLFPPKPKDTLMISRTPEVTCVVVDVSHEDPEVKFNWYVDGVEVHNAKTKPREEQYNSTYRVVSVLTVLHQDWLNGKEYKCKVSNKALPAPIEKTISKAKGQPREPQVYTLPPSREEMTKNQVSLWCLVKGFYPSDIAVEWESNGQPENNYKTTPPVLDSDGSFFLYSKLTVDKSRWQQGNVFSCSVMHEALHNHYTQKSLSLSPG
light: DIVMTQSPATLSLSPGERATLSCRSSKSLQNVNGNTYLYWFQQKPGQSPQLLIYRMSNLNSGVPDRFSGSGSGTEFTLTISSLEPEDFAVYYCMQHLEYPITFGAGTKLEIKRTVAAPSVFIFPPSDEQLKSGTASVVCLLNNFYPREAKVQWKVDNALQSGNSQESVTEQDSKDSTYSLSSTLTLSKADYEKHKVYACEVTHQGLSSPVTKSFNRGEC
chain: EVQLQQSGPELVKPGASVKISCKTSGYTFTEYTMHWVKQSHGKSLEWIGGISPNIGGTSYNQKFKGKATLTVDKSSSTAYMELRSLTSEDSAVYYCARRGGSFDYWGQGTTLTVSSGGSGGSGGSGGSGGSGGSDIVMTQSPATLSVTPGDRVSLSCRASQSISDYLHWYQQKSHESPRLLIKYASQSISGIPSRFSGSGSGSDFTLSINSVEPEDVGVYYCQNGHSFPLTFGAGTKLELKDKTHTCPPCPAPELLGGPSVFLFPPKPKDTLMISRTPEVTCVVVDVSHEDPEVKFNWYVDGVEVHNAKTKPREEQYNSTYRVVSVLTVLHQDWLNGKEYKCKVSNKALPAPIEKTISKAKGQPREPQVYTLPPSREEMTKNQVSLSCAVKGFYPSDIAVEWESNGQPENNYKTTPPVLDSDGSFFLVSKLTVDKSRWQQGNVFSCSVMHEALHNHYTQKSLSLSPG
notes: CD19, wt Fc, NKp46(NKp46-3)
Turning to B2, the binding result in test [1] is reported as “binds”.

B3: 2Fab-1scFv-AFc-3 (bispecific antibody, human IgG1, kappa)
heavy: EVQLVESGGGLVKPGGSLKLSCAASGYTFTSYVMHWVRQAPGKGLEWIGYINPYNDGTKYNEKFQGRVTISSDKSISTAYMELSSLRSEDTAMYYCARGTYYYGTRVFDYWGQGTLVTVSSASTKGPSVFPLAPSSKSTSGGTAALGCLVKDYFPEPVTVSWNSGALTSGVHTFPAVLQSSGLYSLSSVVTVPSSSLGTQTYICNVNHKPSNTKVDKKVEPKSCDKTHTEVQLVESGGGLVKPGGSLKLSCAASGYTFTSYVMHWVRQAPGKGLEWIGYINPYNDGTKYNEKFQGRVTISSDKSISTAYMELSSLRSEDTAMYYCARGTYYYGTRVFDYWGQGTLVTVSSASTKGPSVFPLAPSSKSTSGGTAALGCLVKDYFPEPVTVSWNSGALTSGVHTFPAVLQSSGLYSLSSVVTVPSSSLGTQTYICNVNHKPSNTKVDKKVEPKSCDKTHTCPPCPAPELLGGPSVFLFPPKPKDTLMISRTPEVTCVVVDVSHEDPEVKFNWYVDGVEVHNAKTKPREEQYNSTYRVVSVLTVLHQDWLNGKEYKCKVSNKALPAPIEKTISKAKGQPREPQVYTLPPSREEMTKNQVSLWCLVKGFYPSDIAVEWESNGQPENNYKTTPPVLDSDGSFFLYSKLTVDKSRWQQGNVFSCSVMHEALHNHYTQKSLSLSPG
light: DIVMTQSPATLSLSPGERATLSCRSSKSLQNVNGNTYLYWFQQKPGQSPQLLIYRMSNLNSGVPDRFSGSGSGTEFTLTISSLEPEDFAVYYCMQHLEYPITFGAGTKLEIKRTVAAPSVFIFPPSDEQLKSGTASVVCLLNNFYPREAKVQWKVDNALQSGNSQESVTEQDSKDSTYSLSSTLTLSKADYEKHKVYACEVTHQGLSSPVTKSFNRGEC
chain: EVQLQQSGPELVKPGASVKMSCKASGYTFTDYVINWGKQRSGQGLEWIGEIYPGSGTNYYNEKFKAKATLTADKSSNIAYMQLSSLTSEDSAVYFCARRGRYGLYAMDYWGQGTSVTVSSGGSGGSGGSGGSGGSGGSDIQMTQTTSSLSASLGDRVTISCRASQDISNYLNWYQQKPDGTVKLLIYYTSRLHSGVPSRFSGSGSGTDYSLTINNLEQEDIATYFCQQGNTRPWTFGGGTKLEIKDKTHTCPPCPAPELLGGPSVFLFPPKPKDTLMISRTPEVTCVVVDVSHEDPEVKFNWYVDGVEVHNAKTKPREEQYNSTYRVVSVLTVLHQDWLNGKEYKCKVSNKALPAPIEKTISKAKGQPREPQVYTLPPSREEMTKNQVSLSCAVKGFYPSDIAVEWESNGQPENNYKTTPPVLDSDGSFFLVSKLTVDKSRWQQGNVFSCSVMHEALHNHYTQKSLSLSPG
notes: CD19, wt Fc, NKp46(NKp46-1)
As for B3, the Kd in test [2] was determined as 38.1 nM; in test [3] it was 682 nM.

B4: 2Fab-1scFv-AFc-2 (bispecific antibody, human IgG1, kappa)
heavy: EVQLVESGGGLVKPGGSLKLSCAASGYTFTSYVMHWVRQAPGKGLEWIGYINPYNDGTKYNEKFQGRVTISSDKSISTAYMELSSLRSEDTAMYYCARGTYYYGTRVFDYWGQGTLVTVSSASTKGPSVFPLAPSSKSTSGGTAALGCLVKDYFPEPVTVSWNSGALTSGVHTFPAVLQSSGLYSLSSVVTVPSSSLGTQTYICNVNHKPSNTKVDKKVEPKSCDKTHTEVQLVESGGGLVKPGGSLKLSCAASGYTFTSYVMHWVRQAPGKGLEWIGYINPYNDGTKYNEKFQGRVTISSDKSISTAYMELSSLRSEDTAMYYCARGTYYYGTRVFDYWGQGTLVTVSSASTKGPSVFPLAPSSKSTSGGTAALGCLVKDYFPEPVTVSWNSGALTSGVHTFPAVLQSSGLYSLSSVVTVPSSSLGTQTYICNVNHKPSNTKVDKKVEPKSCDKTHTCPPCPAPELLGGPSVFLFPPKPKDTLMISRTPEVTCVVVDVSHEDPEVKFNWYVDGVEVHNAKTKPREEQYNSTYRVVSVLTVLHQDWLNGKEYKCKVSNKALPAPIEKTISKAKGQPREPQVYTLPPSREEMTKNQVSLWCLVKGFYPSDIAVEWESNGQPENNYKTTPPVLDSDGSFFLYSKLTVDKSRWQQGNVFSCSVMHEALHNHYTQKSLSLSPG
light: DIVMTQSPATLSLSPGERATLSCRSSKSLQNVNGNTYLYWFQQKPGQSPQLLIYRMSNLNSGVPDRFSGSGSGTEFTLTISSLEPEDFAVYYCMQHLEYPITFGAGTKLEIKRTVAAPSVFIFPPSDEQLKSGTASVVCLLNNFYPREAKVQWKVDNALQSGNSQESVTEQDSKDSTYSLSSTLTLSKADYEKHKVYACEVTHQGLSSPVTKSFNRGEC
chain: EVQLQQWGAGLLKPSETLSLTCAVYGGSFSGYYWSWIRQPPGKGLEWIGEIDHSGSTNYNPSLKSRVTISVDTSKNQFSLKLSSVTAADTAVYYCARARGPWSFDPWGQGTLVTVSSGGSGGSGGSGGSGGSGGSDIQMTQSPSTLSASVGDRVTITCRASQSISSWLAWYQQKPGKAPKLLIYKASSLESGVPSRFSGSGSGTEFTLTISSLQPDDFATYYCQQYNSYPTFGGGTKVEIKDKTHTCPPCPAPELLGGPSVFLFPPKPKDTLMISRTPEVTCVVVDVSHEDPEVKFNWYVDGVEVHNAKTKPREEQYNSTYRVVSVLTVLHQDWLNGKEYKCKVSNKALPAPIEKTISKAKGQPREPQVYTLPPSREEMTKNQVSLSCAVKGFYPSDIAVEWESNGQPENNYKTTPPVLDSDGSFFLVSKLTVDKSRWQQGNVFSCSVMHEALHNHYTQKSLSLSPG
notes: CD19, wt Fc, NKG2D(ADI-27743)
B4: the binding result in test [1] is “binds”.

B5: IG-scDb-1 (other)
heavy: EVQLVESGGGLVKPGGSLKLSCAASGYTFTSYVMHWVRQAPGKGLEWIGYINPYNDGTKYNEKFQGRVTISSDKSISTAYMELSSLRSEDTAMYYCARGTYYYGTRVFDYWGQGTLVTVSSASTKGPSVFPLAPSSKSTSGGTAALGCLVKDYFPEPVTVSWNSGALTSGVHTFPAVLQSSGLYSLSSVVTVPSSSLGTQTYICNVNHKPSNTKVDKKVEPKSCDKTHTCPPCPAPEFEGGPSVFLFPPKPKDTLMISRTPEVTCVVVAVSHEDPEVKFNWYVDGVEVHNAKTKPREEQYGSTYRVVSVLTVLHQDWLNGKEYKCKVSNKALPAPIEKTISKAKGQPREPQVYTLPPSREEMTKNQVSLTCLVKGFYPSDIAVEWESNGQPENNYKTTPPVLDSDGSFFLYSKLTVDKSRWQQGNVFSCSVMHEALHNHYTQKSLSLSPGGGGGSGGGGSSYELTQPLSVSVALGQTARITCGGHNIGSKNVHWYQQKPGQAPVLVIYQDNKRPSGIPERFSGSNSGNTATLTISRAQAGDEADYYCQVWDNYNVLFGCGTKLTVLGGSGGSQVQLVESGGGLVKPGGSLRLSCAASGFTFSSYGMHWVRQAPGKGLEWVAFIRYDGSNKYYADSVKGRFTISRDNSKNTLYLQMNSLRAEDTAVYYCAKDRGLGDGTYFDYWGQGTTVTVSSGGSGGSGGSGGSGGSGGSQSALTQPASVSGSPGQSITISCSGSSSNIGNNAVNWYQQLPGKAPKLLIYYDDLLPSGVSDRFSGSKSGTSAFLAISGLQSEDEADYYCAAWDDSLNGPVFGGGTKLTVLGGSGGSQVQLVQSGAEVKKPGASVKVSCKASGYTFTSYYMHWVRQAPGQCLEWMGAIEPTYGSTSYAQKFQGRVTMTRDTSTSTVYMELSSLRSEDTAVYYCARGSAYYYDFADYWGQGTLVTVSS
light: DIVMTQSPATLSLSPGERATLSCRSSKSLQNVNGNTYLYWFQQKPGQSPQLLIYRMSNLNSGVPDRFSGSGSGTEFTLTISSLEPEDFAVYYCMQHLEYPITFGAGTKLEIKRTVAAPSVFIFPPSDEQLKSGTASVVCLLNNFYPREAKVQWKVDNALQSGNSQESVTEQDSKDSTYSLSSTLTLSKADYEKHKVYACEVTHQGLSSPVTKSFNRGEC
notes: trispecific construct: target CD19, effector domains CD16A(P2C47var50) and NKG2D(KYK-2.0)
As for B5, the Kd in test [4] was found to be 4090 nM.

B6: 1Fab-AFc-1Fab-2 (bispecific antibody, human IgG1, kappa)
chain 1: not shown
chain 2: EVQLVESGGGLVKPGGSLKLSCAASGYTFTSYVMHWVRQAPGKGLEWIGYINPYNDGTKYNEKFQGRVTISSDKSISTAYMELSSLRSEDTAMYYCARGTYYYGTRVFDYWGQGTLVTVSSASTKGPSVFPLAPSSKSTSGGTAALGCLVKDYFPEPVTVSWNSGALTSGVHTFPAVLQSSGLYSLSSVVTVPSSSLGTQTYICNVNHKPSNTKVDKKVEPKSCDKTHTCPPCPAPELLGGPSVFLFPPKPKDTLMISRTPEVTCVVVDVSHEDPEVKFNWYVDGVEVHNAKTKPREEQYNSTYRVVSVLTVLHQDWLNGKEYKCKVSNKALPAPIEKTISKAKGQPREPQVYTLPPSREEMTKNQVSLSCAVKGFYPSDIAVEWESNGQPENNYKTTPPVLDSDGSFFLVSKLTVDKSRWQQGNVFSCSVMHEALHNHYTQKSLSLSPGSTGSEVQLQQSGPELVKPGASVKISCKTSGYTFTEYTMHWVKQSHGKSLEWIGGISPNIGGTSYNQKFKGKATLTVDKSSSTAYMELRSLTSEDSAVYYCARRGGSFDYWGQGTTLTVSSRTVAAPSVFIFPPSDEQLKSGTASVVCLLNNFYPREAKVQWKVDNALQSGNSQESVTEQDSKDSTYSLSSTLTLSKADYEKHKVYACEVTHQGLSSPVTKSFNRGEC
chain 3: DIVMTQSPATLSVTPGDRVSLSCRASQSISDYLHWYQQKSHESPRLLIKYASQSISGIPSRFSGSGSGSDFTLSINSVEPEDVGVYYCQNGHSFPLTFGAGTKLELKASTKGPSVFPLAPSSKSTSGGTAALGCLVKDYFPEPVTVSWNSGALTSGVHTFPAVLQSSGLYSLSSVVTVPSSSLGTQTYICNVNHKPSNTKVDKKVEPKSCDKTH
notes: CD19, wt Fc, NKp46(NKp46-3); also called ComparatorA_2
For B6, the Kd is 23.9 nM in test [5], 48 nM in test [6] and 1150 nM in test [4].

B7: 1Fab-AFc-1Fab-1 (bispecific antibody, human IgG1, kappa)
chain 1: not shown
chain 2: EVQLVESGGGLVKPGGSLKLSCAASGYTFTSYVMHWVRQAPGKGLEWIGYINPYNDGTKYNEKFQGRVTISSDKSISTAYMELSSLRSEDTAMYYCARGTYYYGTRVFDYWGQGTLVTVSSASTKGPSVFPLAPSSKSTSGGTAALGCLVKDYFPEPVTVSWNSGALTSGVHTFPAVLQSSGLYSLSSVVTVPSSSLGTQTYICNVNHKPSNTKVDKKVEPKSCDKTHTCPPCPAPELLGGPSVFLFPPKPKDTLMISRTPEVTCVVVDVSHEDPEVKFNWYVDGVEVHNAKTKPREEQYNSTYRVVSVLTVLHQDWLNGKEYKCKVSNKALPAPIEKTISKAKGQPREPQVYTLPPSREEMTKNQVSLSCAVKGFYPSDIAVEWESNGQPENNYKTTPPVLDSDGSFFLVSKLTVDKSRWQQGNVFSCSVMHEALHNHYTQKSLSLSPGSTGSQVQLQQSGPELVKPGASVKMSCKASGYTFTDYVINWGKQRSGQGLEWIGEIYPGSGTNYYNEKFKAKATLTADKSSNIAYMQLSSLTSEDSAVYFCARRGRYGLYAMDYWGQGTSVTVSSRTVAAPSVFIFPPSDEQLKSGTASVVCLLNNFYPREAKVQWKVDNALQSGNSQESVTEQDSKDSTYSLSSTLTLSKADYEKHKVYACEVTHQGLSSPVTKSFNRGEC
chain 3: DIQMTQTTSSLSASLGDRVTISCRASQDISNYLNWYQQKPDGTVKLLIYYTSRLHSGVPSRFSGSGSGTDYSLTINNLEQEDIATYFCQQGNTRPWTFGGGTKLEIKASTKGPSVFPLAPSSKSTSGGTAALGCLVKDYFPEPVTVSWNSGALTSGVHTFPAVLQSSGLYSLSSVVTVPSSSLGTQTYICNVNHKPSNTKVDKKVEPKSCDKTH
notes: CD19, wt Fc, NKp46(NKp46-1); also called ComparatorA_1
In the case of B7, the Kd in test [7] came to 22.7 nM; in test [8] it was 286 nM.

Source of the values: patent publication US20230365709A1 (published 2023).
